The record followed here is paper PMC7864571.

For the series, the target named is T1, NXF1(RRM-LRR) (UniProt Q9UBU9 96-362).
T1 sequence: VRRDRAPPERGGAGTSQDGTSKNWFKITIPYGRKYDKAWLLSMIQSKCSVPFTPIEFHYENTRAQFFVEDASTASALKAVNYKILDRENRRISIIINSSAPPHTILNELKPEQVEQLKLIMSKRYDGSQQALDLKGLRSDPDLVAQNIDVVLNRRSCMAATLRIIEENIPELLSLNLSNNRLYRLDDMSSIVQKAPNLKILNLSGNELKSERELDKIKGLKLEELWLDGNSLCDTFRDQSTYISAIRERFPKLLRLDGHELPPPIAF
The experiment in a line: EMSA; in presence of GST-Nsp1(1-129); RNA binding of NXF1 not impaired; 10 mM Tris pH 8.0, 100 mM NaCl, 0.5 mM TCEP, 8% glycerol, 0.5 U/ul SUPERase-In, room temperature 10 min; 5% native PAGE; 100 nM RNA. Particulars: protein: recombinant; tags: GST tag removed by TEV; label: 5' Alexa Fluor 488; single strand.

UUUUUUUUUUUUUUU (ssRNA) [poly(U) 15-mer RNA]: the binding result is “binds”.
